Assay [1] can be described thus: apigenin glucosylation acceptor reaction with recombinant glucansucrases (microplate screening). The conditions noted are these: sucrose 146 mM, apigenin 2.5 mM, 3% DMSO, 30° C., 24 h; HPLC-UV 340 nm peak areas. The assay is classed as biochemical. The method, then:
(§1) The enzymatic extracts obtained are used to carry out the flavonoid glucosylation enzymatic screening reactions. The enzymatic activity of each centrifuged cell lysate is evaluated in the microplate format, by final weight after 30 minutes incubation in the presence of a final concentration of 146 mM of sucrose, by assaying the reducing sugars with 3,5-dinitrosalicylic acid (DNS). Finally, after dilution in ultrapure water, the absorbance is read at 540 nm.
(§2) The flavonoid acceptor reactions are then carried out in deep-well microplates, in a volume of 300 μl, at final concentrations of sucrose of 146 mM and of flavonoid of 2.5 mM (apigenin) or 5 mM (naringenin) (initially dissolved in 100% DMSO), and 140 μl of centrifuged cell lysate.
(§3) The final DMSO concentration in the reaction medium is 3% (v/v).
(§4) The incubation is carried out at 30° C. and at 700 rpm. After 24 hours, the enzymes are denatured at 95° C. for 15 minutes. These microplates are stored at −80° C. with a view to rapid evaluation of the flavonoid glucosylation by liquid-phase chromatography coupled to mass spectrometry (HPLC-MS or LC-MS).
(§5) With a view to their analyses by HPLC-MS, the extensively homogenized reaction media are diluted to 1/30th in DMSO. The separation of the flavonoids and of their glucosylated forms is carried out in reverse phase with a ProntoSlL Eurobond® 53×3.0 mm 120-3-C18-AQ column (porosity of 120 Å, particle size of 3 μm, C18 grafting, Bischoff Chromatography, Germany).
(§6) The flavonoid glucosylation efficiency was determined from the following formula: Glucosylation efficiency=(Σ(area of the peak of glucosylated flavonoid(s)))/(Σ(area of the peak of glucosylated flavonoid(s))+area of the peak of residual aglycone flavonoid)×100
The flavonoid glucosylation efficiencies, expressed as a percentage, were calculated from the areas of the peaks of the various products analyzed, as described in example 1, by HPLC with a UV detector (340 nm) after 24 h of reaction.

Assay [2] in a line: naringenin glucosylation acceptor reaction with recombinant glucansucrases (microplate screening). The assay is classed as biochemical. The conditions noted are these: sucrose 146 mM, naringenin 5 mM, 3% DMSO, 30° C., 24 h; HPLC-UV 340 nm peak areas. The method, then: as §1, §2, §3, §4, §5, §6
The flavonoid glucosylation efficiency was determined from the formula set out in example 2. The flavonoid glucosylation efficiencies, expressed as a percentage, were calculated from the areas of the peaks of the various products analyzed, as described in example 1, by HPLC with a UV detector (λ340 nm), after 24 h of reaction.

B1: V331C: ASNp amylosucrase single mutant (protein, UniProt Q9ZEU2 1-636, looked up, variant V331C)
Amylosucrase: MLTPTQQVGLILQYLKTRILDIYTPEQRAGIEKSEDWRQFSRRMDTHFPKLMNELDSVYGNNEALLPMLEMLLAQAWQSYSQRNSSLKDIDIARENNPDWILSNKQVGGVCYVDLFAGDLKGLKDKIPYFQELGLTYLHLMPLFKCPEGKSDGGYAVSSYRDVNPALGTIGDLREVIAALHEAGISAVVDFIFNHTSNEHEWAQRCAAGDPLFDNFYYIFPDRRMPDQYDRTLREIFPDQHPGGFSQLEDGRWVWTTFNSFQWDLNYSNPWVFRAMAGEMLFLANLGVDILRMDAVAFIWKQMGTSCENLPQAHALIRAFNAVMRIAAPACFFKSEAIVHPDQVVQYIGQDECQIGYNPLQMALLWNTLATREVNLLHQALTYRHNLPEHTAWVNYVRSHDDIGWTFADEDAAYLGISGYDHRQFLNRFFVNRFDGSFARGVPFQYNPSTGDCRVSGTAAALVGLAQDDPHAVDRIKLLYSIALSTGGLPLIYLGDEVGTLNDDDWSQDSNKSDDSRWAHRPRYNEALYAQRNDPSTAAGQIYQGLRHMIAVRQSNPRFDGGRLVTFNTNNKHIIGYIRNNALLAFGNFSEYPQTVTAHTLQAMPFKAHDLIGGKTVSLNQDLTLQPYQVMWLEIA
For the molecule B1, the apigenin glucosylation efficiency in assay [1] worked out at 1.2%. The naringenin glucosylation efficiency in assay [2] is 5.4%.

B2: V331D: ASNp amylosucrase single mutant (protein, UniProt Q9ZEU2 1-636, looked up, variant V331D)
Amylosucrase: MLTPTQQVGLILQYLKTRILDIYTPEQRAGIEKSEDWRQFSRRMDTHFPKLMNELDSVYGNNEALLPMLEMLLAQAWQSYSQRNSSLKDIDIARENNPDWILSNKQVGGVCYVDLFAGDLKGLKDKIPYFQELGLTYLHLMPLFKCPEGKSDGGYAVSSYRDVNPALGTIGDLREVIAALHEAGISAVVDFIFNHTSNEHEWAQRCAAGDPLFDNFYYIFPDRRMPDQYDRTLREIFPDQHPGGFSQLEDGRWVWTTFNSFQWDLNYSNPWVFRAMAGEMLFLANLGVDILRMDAVAFIWKQMGTSCENLPQAHALIRAFNAVMRIAAPADFFKSEAIVHPDQVVQYIGQDECQIGYNPLQMALLWNTLATREVNLLHQALTYRHNLPEHTAWVNYVRSHDDIGWTFADEDAAYLGISGYDHRQFLNRFFVNRFDGSFARGVPFQYNPSTGDCRVSGTAAALVGLAQDDPHAVDRIKLLYSIALSTGGLPLIYLGDEVGTLNDDDWSQDSNKSDDSRWAHRPRYNEALYAQRNDPSTAAGQIYQGLRHMIAVRQSNPRFDGGRLVTFNTNNKHIIGYIRNNALLAFGNFSEYPQTVTAHTLQAMPFKAHDLIGGKTVSLNQDLTLQPYQVMWLEIA
Regarding B2, in assay [1], the apigenin glucosylation efficiency was found to be 0.9%. The naringenin glucosylation efficiency in assay [2] is recorded as 0.0%.

B3: V331Y: ASNp amylosucrase single mutant (protein, UniProt Q9ZEU2 1-636, looked up, variant V331Y)
Amylosucrase: MLTPTQQVGLILQYLKTRILDIYTPEQRAGIEKSEDWRQFSRRMDTHFPKLMNELDSVYGNNEALLPMLEMLLAQAWQSYSQRNSSLKDIDIARENNPDWILSNKQVGGVCYVDLFAGDLKGLKDKIPYFQELGLTYLHLMPLFKCPEGKSDGGYAVSSYRDVNPALGTIGDLREVIAALHEAGISAVVDFIFNHTSNEHEWAQRCAAGDPLFDNFYYIFPDRRMPDQYDRTLREIFPDQHPGGFSQLEDGRWVWTTFNSFQWDLNYSNPWVFRAMAGEMLFLANLGVDILRMDAVAFIWKQMGTSCENLPQAHALIRAFNAVMRIAAPAYFFKSEAIVHPDQVVQYIGQDECQIGYNPLQMALLWNTLATREVNLLHQALTYRHNLPEHTAWVNYVRSHDDIGWTFADEDAAYLGISGYDHRQFLNRFFVNRFDGSFARGVPFQYNPSTGDCRVSGTAAALVGLAQDDPHAVDRIKLLYSIALSTGGLPLIYLGDEVGTLNDDDWSQDSNKSDDSRWAHRPRYNEALYAQRNDPSTAAGQIYQGLRHMIAVRQSNPRFDGGRLVTFNTNNKHIIGYIRNNALLAFGNFSEYPQTVTAHTLQAMPFKAHDLIGGKTVSLNQDLTLQPYQVMWLEIA
For the molecule B3, the apigenin glucosylation efficiency in assay [1] came to 0.4%. In assay [2], the naringenin glucosylation efficiency was found to be 3.8%.

B4: V331F: ASNp amylosucrase single mutant (protein, UniProt Q9ZEU2 1-636, looked up, variant V331F)
Amylosucrase: MLTPTQQVGLILQYLKTRILDIYTPEQRAGIEKSEDWRQFSRRMDTHFPKLMNELDSVYGNNEALLPMLEMLLAQAWQSYSQRNSSLKDIDIARENNPDWILSNKQVGGVCYVDLFAGDLKGLKDKIPYFQELGLTYLHLMPLFKCPEGKSDGGYAVSSYRDVNPALGTIGDLREVIAALHEAGISAVVDFIFNHTSNEHEWAQRCAAGDPLFDNFYYIFPDRRMPDQYDRTLREIFPDQHPGGFSQLEDGRWVWTTFNSFQWDLNYSNPWVFRAMAGEMLFLANLGVDILRMDAVAFIWKQMGTSCENLPQAHALIRAFNAVMRIAAPAFFFKSEAIVHPDQVVQYIGQDECQIGYNPLQMALLWNTLATREVNLLHQALTYRHNLPEHTAWVNYVRSHDDIGWTFADEDAAYLGISGYDHRQFLNRFFVNRFDGSFARGVPFQYNPSTGDCRVSGTAAALVGLAQDDPHAVDRIKLLYSIALSTGGLPLIYLGDEVGTLNDDDWSQDSNKSDDSRWAHRPRYNEALYAQRNDPSTAAGQIYQGLRHMIAVRQSNPRFDGGRLVTFNTNNKHIIGYIRNNALLAFGNFSEYPQTVTAHTLQAMPFKAHDLIGGKTVSLNQDLTLQPYQVMWLEIA
Consider B4, for which the apigenin glucosylation efficiency in assay [1] stood at 0.4%. The naringenin glucosylation efficiency in assay [2] is 0.0%.

B5: V331E: ASNp amylosucrase single mutant (protein, UniProt Q9ZEU2 1-636, looked up, variant V331E)
Amylosucrase: MLTPTQQVGLILQYLKTRILDIYTPEQRAGIEKSEDWRQFSRRMDTHFPKLMNELDSVYGNNEALLPMLEMLLAQAWQSYSQRNSSLKDIDIARENNPDWILSNKQVGGVCYVDLFAGDLKGLKDKIPYFQELGLTYLHLMPLFKCPEGKSDGGYAVSSYRDVNPALGTIGDLREVIAALHEAGISAVVDFIFNHTSNEHEWAQRCAAGDPLFDNFYYIFPDRRMPDQYDRTLREIFPDQHPGGFSQLEDGRWVWTTFNSFQWDLNYSNPWVFRAMAGEMLFLANLGVDILRMDAVAFIWKQMGTSCENLPQAHALIRAFNAVMRIAAPAEFFKSEAIVHPDQVVQYIGQDECQIGYNPLQMALLWNTLATREVNLLHQALTYRHNLPEHTAWVNYVRSHDDIGWTFADEDAAYLGISGYDHRQFLNRFFVNRFDGSFARGVPFQYNPSTGDCRVSGTAAALVGLAQDDPHAVDRIKLLYSIALSTGGLPLIYLGDEVGTLNDDDWSQDSNKSDDSRWAHRPRYNEALYAQRNDPSTAAGQIYQGLRHMIAVRQSNPRFDGGRLVTFNTNNKHIIGYIRNNALLAFGNFSEYPQTVTAHTLQAMPFKAHDLIGGKTVSLNQDLTLQPYQVMWLEIA
In the case of B5, the apigenin glucosylation efficiency in assay [1] is given as 0.7%. The naringenin glucosylation efficiency in assay [2] stood at 0.0%.

B6: V331G: ASNp amylosucrase single mutant (protein, UniProt Q9ZEU2 1-636, looked up, variant V331G)
Amylosucrase: MLTPTQQVGLILQYLKTRILDIYTPEQRAGIEKSEDWRQFSRRMDTHFPKLMNELDSVYGNNEALLPMLEMLLAQAWQSYSQRNSSLKDIDIARENNPDWILSNKQVGGVCYVDLFAGDLKGLKDKIPYFQELGLTYLHLMPLFKCPEGKSDGGYAVSSYRDVNPALGTIGDLREVIAALHEAGISAVVDFIFNHTSNEHEWAQRCAAGDPLFDNFYYIFPDRRMPDQYDRTLREIFPDQHPGGFSQLEDGRWVWTTFNSFQWDLNYSNPWVFRAMAGEMLFLANLGVDILRMDAVAFIWKQMGTSCENLPQAHALIRAFNAVMRIAAPAGFFKSEAIVHPDQVVQYIGQDECQIGYNPLQMALLWNTLATREVNLLHQALTYRHNLPEHTAWVNYVRSHDDIGWTFADEDAAYLGISGYDHRQFLNRFFVNRFDGSFARGVPFQYNPSTGDCRVSGTAAALVGLAQDDPHAVDRIKLLYSIALSTGGLPLIYLGDEVGTLNDDDWSQDSNKSDDSRWAHRPRYNEALYAQRNDPSTAAGQIYQGLRHMIAVRQSNPRFDGGRLVTFNTNNKHIIGYIRNNALLAFGNFSEYPQTVTAHTLQAMPFKAHDLIGGKTVSLNQDLTLQPYQVMWLEIA
Regarding B6, the apigenin glucosylation efficiency in assay [1] is listed as 1.9%. In addition, the naringenin glucosylation efficiency in assay [2] came out at 6.9%.

(Values after patent US10647739B2, “Flavonoids O-A-glucosylated on the B cycle, method for the production thereof and uses” (Institut National de la Recherche Agronomique, priority 2014, dated 2020).)
